This passage reports IC50 results from patent US20200095296A1, “USE OF PEPTIDES AS BIOMARKERS IN THE DIAGNOSIS, CONFIRMATION AND TREATMENT OF A NEUROLOGICAL DISORDER AND TCR AND/OR HLA IMMUNOPROFILING IN NEURODEGENERATIVE DISEASE” (THE TRUSTEES OF COLUMBIA UNIVERSITY IN THE CITY OF NEW YORK, priority 2017, published 2020).

Targets include HLA DRB1*11:01 (human); HLA DRB1*03:01 (human); HLA DRB3*01:01 (human); HLA DRB1*04:05 (human); HLA DRB1*09:01 (human); HLA DRB1*04:01 (human).
Common to all, as to experiment: competition with radiolabeled peptide, purified HLA

pIC50: −log10 of the molar value.

On to alpha-syn peptide aa116…aa130, for which the negative-log IC50 (pIC50) – broadly, the IC50 on a negative log10 scale, so that one unit is a factor of ten – with HLA DRB1*11:01 (human) is 5.80; in the test with HLA DRB1*03:01 (human), 5.16; with HLA DRB3*01:01 (human), 5.25.
The substance “alpha-syn peptide aa116…aa130 phosphorylated at S129” had a negative-log IC50 (pIC50) in the test with HLA DRB1*04:05 (human) of 5.44.
With alpha-syn peptide aa121…aa135, the pIC50 with HLA DRB1*09:01 (human) is 5.34; with HLA DRB1*04:05 (human) it was 5.71.
“alpha-syn peptide aa121…aa135 phosphorylated at S129”: the pIC50 with HLA DRB1*04:01 (human) and in the test with HLA DRB3*01:01 (human) was 5.04 throughout.
In the test with HLA DRB1*04:01 (human), “alpha-syn peptide aa126…aa140 phosphorylated at S129” gave a pIC50 of 5.30.
